# T1: PvSUB1 peptide substrate KLVGADDVSLA, tagged with fluorophore and quencher
# T1 chain: KLVGADDVSLA
# T2: PfSUB1 peptide substrate KLVSADNIDIS, tagged with fluorophore and quencher
# T2 chain: KLVSADNIDIS
# B1: recombinant enzymatically active form of Plasmodium vivax SUB1-Belem (PvSUB1-Belem), following auto-maturation at the KLVGAD//DVSLA site (protein)
# chain: DVSLASVKDAVRRGESSVNWGKLRSTMLEVPSGESPPSHAASSGSPFDDDDDLLSEAALHREEAHLAGSKTTKGYKFNDEYRNLQWGLDLARLDETQDLINANRVSVTKICVIDSGIDYNHPDLRNNIDVNVKELHGRKGVDDDSNGVVDDVYGANFVNNSGDPMDDNYHGTHVSGIISAVGNNGIGIVGVDGHSKLVICKALDQHKLGRLGDMFKCIDYCISRQAHMINGSFSFDEYSNIFNASVEHLRSLGILFFVSASNCAHDKLSKPDIAKCDLAVNHRYPPILSKTHNNVIAVANLKRDLDESYSLSVNSFYSNIYCQLAAPGTNIYSTTPMNNYRKLNGTSMASPHVAAIASIVRSINPNLTYLQIVEILRNAIVKLPSLTERVSWGGYVDILRAVNLAIDSKAAPYIKSHSWFRWKQGSRRHHHHHH
# B2: recombinant Plasmodium falciparum SUB1 (PfSUB1) (protein)
# chain: MLLVNQSHQGFNKEHTSKMVSAIVLYVLLAAAAHSAFAADLGSKEVRSEENGKIQDDAKKIVSELRFLEKVEDVIEKSNIGGNEVDADENSFNPDTEVPIEEIEEIKMRELKDVKEEKNKNDNHNNNNNNISSSSSSSSNTFGEEKEEVSKKKKKLRLIVSENHATTPSFFQESLLEPDVLSFLESKGNLSNLKNINSMIIELKEDTTDDELISYIKILEEKGALIESDKLVSADNIDISGIKDAIRRGEENIDVNDYKSMLEVENDAEDYDKMFGMFNESHAATSKRKRHSTNERGYDTFSSPSYKTYSKSDYLYDDDNNNNNYYYSHSSNGHNSSSRNSSSSRSRPGKYHFNDEFRNLQWGLDLSRLDETQELINEHQVMSTRICVIDSGIDYNHPDLKDNIELNLKELHGRKGFDDDNNGIVDDIYGANFVNNSGNPMDDNYHGTHVSGIISAIGNNNIGVVGVDVNSKLIICKALDEHKLGRLGDMFKCLDYCISRNAHMINGSFSFDEYSGIFNSSVEYLQRKGILFFVSASNCSHPKSSTPDIRKCDLSINAKYPPILSTVYDNVISVANLKKNDNNNHYSLSINSFYSNKYCQLAAPGTNIYSTAPHNSYRKLNGTSMAAPHVAAIASLIFSINPDLSYKKVIQILKDSIVYLPSLKNMVAWAGYADINKAVNLAIKSKKTYINSNISNKWKKKSRYLHHHHHH
# How the values were obtained:
# [1] = molecular target: T1, PvSUB1 peptide substrate KLVGADDVSLA, …
# [2] = molecular target: T2, PfSUB1 peptide substrate KLVSADNIDIS, …
Protein,apparent Km [1],apparent Km [2]
B1,19.7 µM±1.7,–
B2,–,30.2 µM±3.4

# Source: patent US20140134657
